Here are results for two molecules from patent publication US20190330339A1 (published 2019).

The target in assay [1] is T1, human LAG-3 expressed on cells (human, UniProt P18627 23-525).
T1 construct: the transgene of the cell lines is not tied to it by name; also called hLAG-3; 3A9.hLAG-3
T1 sequence: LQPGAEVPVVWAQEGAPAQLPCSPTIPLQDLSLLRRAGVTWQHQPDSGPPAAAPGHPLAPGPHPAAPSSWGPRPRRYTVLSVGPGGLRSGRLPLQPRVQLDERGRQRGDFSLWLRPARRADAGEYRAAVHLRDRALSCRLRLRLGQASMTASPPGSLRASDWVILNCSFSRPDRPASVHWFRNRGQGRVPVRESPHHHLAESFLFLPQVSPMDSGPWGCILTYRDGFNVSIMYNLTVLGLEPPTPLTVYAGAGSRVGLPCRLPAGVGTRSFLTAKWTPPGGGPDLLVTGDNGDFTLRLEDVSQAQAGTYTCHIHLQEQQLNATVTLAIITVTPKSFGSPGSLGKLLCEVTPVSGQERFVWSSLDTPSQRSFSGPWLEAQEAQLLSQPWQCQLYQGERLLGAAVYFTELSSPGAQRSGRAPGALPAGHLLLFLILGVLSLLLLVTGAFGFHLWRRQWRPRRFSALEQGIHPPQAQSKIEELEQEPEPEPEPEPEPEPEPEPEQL
In words: flow cytometry on 3A9 cells over-expressing human LAG-3. On the procedure:
Binding to cell-expressed human LAG-3 was evaluated on human LAG-3 over-expressing 3A9 cells. A Nanobody dilution series was prepared in assay buffer: PBS/10% FBS/0.05% sodium azide. 1×10⁵ cells/well were transferred to a 96-well V-bottom plate and resuspended in 100 μL Nanobody dilution. After 30 minutes incubation at 4° C., the cells were washed with 100 μL/well assay buffer and resuspended in 100 μL/well of 1 μg/ml anti-FLAG (Sigma, F1804). […] Samples were incubated for 30 minutes at 4° C., washed, and resuspended in 100 μL/well of 5 nM TOPRO3 (LifeTechnologies, T3606) solution before analysis on FACS CANTO II (BD).
(In flow cytometry, cells or beads pass a laser one at a time.)

The target in the next assay is T2, human LAG-3-hFc (human, UniProt P18627 23-450).
T2 construct: also called human LAG3-Fc; not shown: human Fc (hFc)
T2 sequence: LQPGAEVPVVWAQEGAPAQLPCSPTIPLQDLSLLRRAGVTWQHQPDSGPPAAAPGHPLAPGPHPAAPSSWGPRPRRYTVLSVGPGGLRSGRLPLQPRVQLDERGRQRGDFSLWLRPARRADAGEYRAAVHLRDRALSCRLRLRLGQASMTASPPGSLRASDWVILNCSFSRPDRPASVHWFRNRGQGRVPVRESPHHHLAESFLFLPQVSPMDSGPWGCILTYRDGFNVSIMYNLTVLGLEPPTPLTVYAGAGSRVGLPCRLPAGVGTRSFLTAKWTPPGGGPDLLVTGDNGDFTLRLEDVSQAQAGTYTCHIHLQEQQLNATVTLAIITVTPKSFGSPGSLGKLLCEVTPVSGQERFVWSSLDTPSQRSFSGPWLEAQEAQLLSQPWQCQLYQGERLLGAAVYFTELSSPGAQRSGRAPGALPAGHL
In words: flow cytometry ligand competition; LAG-3-hFc on Daudi cells. On the procedure: A Nanobody dilution series was prepared in assay buffer: HBSS/2% FBS. Prior to the experiment, Fc receptors on the Daudi cells were blocked with human Fc block (BD Pharmingen, 564220) and 5 μg/mL goat IgG (Jackson ImmunoResearch, 005-000-003) for 30 minutes at 4° C. […] 1×10⁵ cells/well were seeded in V-bottom 96-well plates and resuspended in 100 μL/well of the Nanobody/ligand dilution. After 30 minutes incubation at 4° C., the cells were washed and resuspended in 100 μL/well PE-labeled Goat anti-human IgG (Southern Biotech, 2043-09). Samples were incubated for 15 minutes at 4° C., washed, and resuspended in 100 μL/well of 5 nM TOPRO3 (LifeTechnologies, T3606) solution before analysis on FACS CANTO II (BD).

The target of assay [2] is T3, human PD-1 expressed on cells (human, UniProt Q15116 25-288).
T3 construct: the transgene of the cell lines is not tied to it by name; also called hPD-1; CHO.hPD-1
In words: flow cytometry ligand competition on CHO cells over-expressing human PD-1. The procedure:
Ligand competition assays were performed on human PD-1 over-expressing CHO cells. A Nanobody dilution series was prepared in assay buffer: PBS/10% FBS/0.05% sodium azide. […] 2×10⁴ cells/well were seeded in V-bottom 96-well plates and resuspended in 200 μL/well of the Nanobody/ligand dilution. After 90 minutes incubation at 4° C., the cells were washed with 100 μL/well assay buffer and resuspended in 100 μL/well PE-labeled Goat anti-human IgG (Southern Biotech, 2043-09). Samples were incubated for 30 minutes at 4° C., washed, and resuspended in 100 μL/well of 5 nM TOPRO3 (LifeTechnologies, T3606) solution before analysis on FACS CANTO II (BD).

T3 sequence (Q15116 25-288 limits assumed): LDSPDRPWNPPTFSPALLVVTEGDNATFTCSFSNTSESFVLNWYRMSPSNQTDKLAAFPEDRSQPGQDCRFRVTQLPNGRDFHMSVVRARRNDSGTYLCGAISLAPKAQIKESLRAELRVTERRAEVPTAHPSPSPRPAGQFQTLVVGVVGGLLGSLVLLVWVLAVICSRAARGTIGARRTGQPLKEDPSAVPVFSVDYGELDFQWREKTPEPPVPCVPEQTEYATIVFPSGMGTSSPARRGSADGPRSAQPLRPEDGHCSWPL

B1: F0237611B09-FLAG3-HIS6 (VHH)
VHH: EVQLVESGGGLVQAGGSLRLSCAASGRTFSDYVMGWFRQARGNEREFVAAISESGGRTHYADAVKGRFTISRDNAKNTLYLQMNSLKPEDTAVYYCATTLLWWTSEYAPIKANDYDYWGQGTLVTVSS
notes: Original monovalent anti-human LAG-3 Nanobody; also called F0237611B09-FLAG-His6; F02376611B09
Take B1: the binding result (in assay [1]; with human LAG-3-hFc) was “binds” in each case.

B2: F023700275 (1PD102C12(A14P, A74S, K83R)-FLAG3-HIS6) (VHH)
VHH: EVQLVESGGGLVQPGGSLRLSCAASGSIASIHAMGWFRQAPGKEREFVAVITWSGGITYYADSVKGRFTISRDNSKNTVYLQMNSLRPEDTAIYYCAGDKHQSSWYDYWGQGTLVTVSS
notes: Monovalent anti-human PD-1 Nanobody, parent of F023700706
Take B2: in assay [2], the binding result was “binds”.
